Measured values reported in US20090169570A1 (BIOTEST, published 2009).
Several values for one entry are separate records, joined by “and”; a condition that tells them apart may be missing. Identical values can stand only once.

How the values were obtained:
[1] = biological target: T1, CD138 expressed on the cell surface (OPM-2, MOLP-8 cells) (human, UniProt P18827 23-310); assay: cell-based or functional assay
T1 sequence (looked up): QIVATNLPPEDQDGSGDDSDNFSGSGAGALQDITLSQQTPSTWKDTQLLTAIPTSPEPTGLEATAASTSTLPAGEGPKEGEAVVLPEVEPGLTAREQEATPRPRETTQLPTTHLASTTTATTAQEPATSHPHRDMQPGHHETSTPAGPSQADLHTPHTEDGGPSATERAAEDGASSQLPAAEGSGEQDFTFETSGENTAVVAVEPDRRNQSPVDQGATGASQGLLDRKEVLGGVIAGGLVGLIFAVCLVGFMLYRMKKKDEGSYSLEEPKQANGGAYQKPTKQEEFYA

[2] = biological target: T1, CD138 expressed on the cell surface …; assay: FACS on CD138+ OPM-2 cells, fluorescence-labeled secondary antibody, mean fluorescence against concentration
Excerpt: The mean fluorescence measured in these experiments was plotted against the antibody concentration.
In FIG. 6, the mean fluorescences as measure for the amount of cell bound antibody is plotted against different antibody or conjugate concentrations.

[3] = biological target: T2, Soluble CD138 antigen from U-266 cell culture supernatant, biotinylated (human, UniProt P18827 23-245, limits assumed, biotinylated on primary amino groups with Sulfo-NHS-LC-Biotin); assay: SPR (BIACORE C), biotinylated soluble CD138 on streptavidin chip, conjugate as analyte at 3.13-100 nM
T2 construct: This is the soluble form in the supernatant of the human MM cell line U-266; also called bCD138; biotinylated CD138
T2 sequence (looked up): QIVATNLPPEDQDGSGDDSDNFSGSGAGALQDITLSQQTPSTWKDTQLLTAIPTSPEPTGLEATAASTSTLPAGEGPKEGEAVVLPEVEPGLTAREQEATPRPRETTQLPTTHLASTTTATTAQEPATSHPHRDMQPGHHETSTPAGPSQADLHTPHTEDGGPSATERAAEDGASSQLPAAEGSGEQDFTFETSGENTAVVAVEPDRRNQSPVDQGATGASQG
Protocol: (§1) The unbound biotinylation reagent was removed using protein desalting columns. Immobilization of bCD138 The sensorchip (SENSOR CHIP SA, BIACORE AB) used in the BIACORE assay is designed to bind biotinylated molecules for interaction analysis in BIACORE systems. The surface consists of a carboxymethylated dextran matrix pre-immobilized with streptavidin and ready for high-affinity capture of biotinylated ligands. Immobilization of bCD138 was performed on SENSOR CHIP SA using a flow rate of 10 μL/min by manual injection. The chip surface was conditioned with three consecutive 1-minute injections of 1 M NaCl in 50 mM NaOH.
(§2) The software of BIACORE C uses pre-defined masks, so called “Wizards” for different experiments where only certain settings can be changed. As the BIACORE C was originally developed to measure concentrations, there is no wizard designed to carry out affinity measurements. […] With this wizard, two flow cells were measured and the dissociation phase was set to 90 s by performing the “Regeneration 1” with BIACORE running buffer. […] The dissociation equilibrium constants were determined by calculating the rate constants ka and kd. Afterwards, the KD-values of the analytes were calculated by the quotient of kd and ka with the BIAevaluation software.

[4] = biological target: T2, Soluble CD138 antigen from U-266 cell …; assay: SPR (BIACORE C), mean of three independent experiments, biotinylated soluble CD138 on streptavidin chip
Protocol: as §1, §2

B1: nBT062-SPDB-DM4 (antibody, human IgG4, kappa, V domains shown)
VH: QVQLQQSGSELMMPGASVKISCKATGYTFSNYWIEWVKQRPGHGLEWIGEILPGTGRTIYNEKFKGKATFTADISSNTVQMQLSSLTSEDSAVYYCARRDYYGNFYYAMDYWGQGTSVTVSS
VL: DIQMTQSTSSLSASLGDRVTISCSASQGINNYLNWYQQKPDGTVELLIYYTSTLQSGVPSRFSGSGSGTDYSLTISNLEPEDIGTYYCQQYSKLPRTFGGGTKLEIKR
modifications: maytansinoid DM4 attached via SPDB (disulfide) linker; attachment residues and chain not stated
IC50 (read off the curve); surviving fraction of MOLP-8 cells (WST viability assay, 5 days), curve 'w/o blocking' [1]: ~0.08 nM

B2: nBT062-SMCC-DM1 (antibody, human IgG4, kappa, V domains shown)
VH: B1 VH
VL: B1 VL
modifications: maytansinoid DM1 attached via SMCC (non-cleavable) linker; attachment residues and chain not stated; average of 3.5 DM1 per antibody stated for nBT062-DM1
EC50 (read off the curve) [2]: ~1 nM

B3: nBT062-SPP-DM1 (antibody, human IgG4, kappa, V domains shown)
VH: B1 VH
VL: B1 VL
modifications: maytansinoid DM1 attached via SPP (disulfide) linker; attachment residues and chain not stated; average of 3.5 DM1 per antibody stated for nBT062-DM1
EC50 (read off the curve) [2]: ~1 nM

B4: nBT062 (antibody, human IgG4, kappa, V domains shown)
VH: B1 VH
VL: B1 VL
notes: also called cB-B4; chimeric B-B4
EC50 (read off the curve) [2]: ~1 nM

B5: B-B4-SPP-DM1 (antibody, V domains shown)
VH: B1 VH
VL: DIQMTQSTSSLSASLGDRVTISCSASQGINNYLNWYQQKPDGTVELLIYYTSTLQSGVPSRFSGSGSGTDYSLTISNLEPEDIGTYYCQQYSKLPRTFGGGTKLEIK
modifications: maytansinoid DM1 attached via SPP (disulfide) linker; attachment residues and chain not stated
notes: the variable domain limits are inferred as for B-B4
Kd [3]: 2.6 nM and 2.7 nM | Kd [4]: 2.6 nM
